Measurements as given in FireProtDB (doi:10.1021/bi00358a035).
Values joined by “and” are separate entries in the source; they are usually repeats but may differ in a detail not shown here. Equal values may be shown once.

B1: Tryptophan synthase alpha chain, P0A877 (parent)
chain: MERYESLFAQLKERKEGAFVPFVTLGDPGIEQSLKIIDTLIEAGADALELGIPFSDPLADGPTIQNATLRAFAAGVTPAQCFEMLALIRQKHPTIPIGLLMYANLVFNKGIDEFYAQCEKVGVDSVLVADVPVEESAPFRQAALRHNVAPIFICPPNADDDLLRQIASYGRGYTYLLSRAGVTGAENRAALPLNHLVAKLKEYNAAPPLQGFGISAPDQVKAAIDAGAAGAISGSAIVKIIEQHINEPEKMLAALKVFVQPMKAATRS

Variants of: B1
Conditions: Escherichia coli (strain K12); pH 7.8; 25 °C; Urea; CD; Potassium phosphate 10 mM; transition: 3; reversible: yes (>90%); structure 1WQ5; whole UniProt chain shown

Row | Variant | denaturant m value | denaturant midpoint (higher = more stable) | unfolding free energy | ddG of mutation (higher = less stable)
1 | MERYESLFAQLKERKEGAFVPLVTLGDPGIEQSLKIIDTLIEAGADALELGIPFSDPLADGPTIQNATLRAFAAGVTPAQCFEMLALIRQKHPTIPIGLLMYANLVFNKGIDEFYAQCEKVGVDSVLVADVPVEESAPFRQAALRHNVAPIFICPPNADDDLLRQIASYGRGYTYLLSRAGVTGAENRAALPLNHLVAKLKEYNAAPPLQGFGISAPDQVKAAIDAGAAGAISGSAIVKIIEQHINEPEKMLAALKVFVQPMKAATRS [F22L] | 3.1 kcal/mol/M and 1.2 kcal/mol/M | 2.54 M and 3.62 M | 7.9 kcal/mol and 4.2 kcal/mol | –
2 | MERYESLFAQLKERKEGAFVPFVTLGDPGIEQSLKIIDTLIEAGADALELGIPFSDPLADGPTIQNATLRAFAAGVTPAQCFEMLALIRQKHPTIPIGLLMYANLVFNKGIDEFYAQCEKVGVDSVLVADVPVEESAPFRQAALRHNVAPIFICPPNADDDLLRQIASYGRGYTYLLSRAGVTGAENRAALPLNHLVAKLKEYNAAPPLQGFGISAPDQVKAAIDAGAAGAISDSAIVKIIEQHINEPEKMLAALKVFVQPMKAATRS [G234D] | 2.6 kcal/mol/M and 1.8 kcal/mol/M | 2.78 M and 3.99 M | 7.1 kcal/mol and 7 kcal/mol | -1.4 kcal/mol and -2 kcal/mol
3 | MERYESLFAQLKERKEGAFVPFVTLGDPGIEQSLKIIDTLIEAGADALELGIPFSDPLADGPTIQNATLRAFAAGVTPAQCFEMLALIRQKHPTIPIGLLMYANLVFNKGIDEFYAQCEKVGVDSVLVADVPVEESAPFRQAALRHNVAPIFICPPNADDDLLRQIASYGRGYTYLLSRAGVTGAENRAALPLNHLVAKLKEYNAAPPLQGFGISAPDQVKAAIDAGAAGAISKSAIVKIIEQHINEPEKMLAALKVFVQPMKAATRS [G234K] | 2.3 kcal/mol/M and 1.2 kcal/mol/M | 2.65 M and 3.81 M | 6.2 kcal/mol and 4.7 kcal/mol | –
4 | MERYESLFAQLKERKEGAFVPFVTLGDPGIEQSLKIIDTLIEAGADALMLGIPFSDPLADGPTIQNATLRAFAAGVTPAQCFEMLALIRQKHPTIPIGLLMYANLVFNKGIDEFYAQCEKVGVDSVLVADVPVEESAPFRQAALRHNVAPIFICPPNADDDLLRQIASYGRGYTYLLSRAGVTGAENRAALPLNHLVAKLKEYNAAPPLQGFGISAPDQVKAAIDAGAAGAISGSAIVKIIEQHINEPEKMLAALKVFVQPMKAATRS [E49M] | 2.8 kcal/mol/M and 1.4 kcal/mol/M | 3.33 M and 4.92 M | 9.4 kcal/mol and 7 kcal/mol | -3.7 kcal/mol and -2 kcal/mol
5 | MERYESLFAQLKERKEGAFVPFVTLGDPGIEQSLKIIDTLIEAGADALELGIPFSDPLADGPTIQNATLRAFAAGVTPAQCFEMLALIRQKHPTIPIGLLMYANLVFNKGIDEFYAQCEKVGVDSVLVADVPVEESAPFRQAALRHNVAPIFICPPNADDDLLRQIASYGRGYTYLLSRAGVTGAENRAALPLNHLVAKLKEYNAAPPLQEFGISAPDQVKAAIDAGAAGAISGSAIVKIIEQHINEPEKMLAALKVFVQPMKAATRS [G211E] | 3 kcal/mol/M and 1.5 kcal/mol/M | 2.73 M and 3.72 M | 8.1 kcal/mol and 5.4 kcal/mol | –
